The values that follow come from publication PMC3482342.

One assay has as its target MukE (Escherichia coli) (UniProt P22524). Conditions: cited from earlier work.
The target in assay [1] is MukE-LLFR (MukE-L38S/L41A/F185S/R186E) (E. coli) (UniProt P22524). Description: AUC.

Sequence of MukE (P22524 whole entry): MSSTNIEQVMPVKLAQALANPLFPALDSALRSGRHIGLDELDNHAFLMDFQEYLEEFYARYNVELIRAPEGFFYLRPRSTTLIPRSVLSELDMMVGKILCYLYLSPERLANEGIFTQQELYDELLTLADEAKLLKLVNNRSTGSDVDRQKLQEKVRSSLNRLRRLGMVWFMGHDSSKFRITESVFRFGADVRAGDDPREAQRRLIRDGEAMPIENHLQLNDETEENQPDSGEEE

Turning to MukE (from UniProt P22524), the Kd in the assay with MukE (Escherichia coli) was 18 µM.

Turning to “MukE-LLFR (MukE-L38S/L41A/F185S/R186E) (from UniProt P22524 10-234) (natural protein)”, the Kd in assay [1] turned out to be 450 µM.
